Test results as given in publication PMC3608532, “Characterization of a Single-Chain Variable Fragment Recognizing a Linear Epitope of Aβ: A Biotechnical Tool for Studies on Alzheimer’s Disease?” (PLoS ONE, 2013).

Experiments:
Experiment in all cases: SPR; Biacore X; Aβ peptides coupled via the C-terminal cysteine to a CM5 chip; IC16 injected (10 to 1000 nM), 20 µl/min, PBS, 25°C; global fit, bivalent binding model
Details in all cases: both partners purified
Aβ(2-8)-GSGSC = biological target: T1, Aβ(2-8)-GSGSC (human)
T1 construct: amyloid-β peptide (Aβ), cut from the amyloid precursor protein (APP), human, residues 2-8; C-terminal spacer with the cysteine by which the peptide was coupled to the chip; source: synthetic peptide, bought: JPT
T1 chain: AEFRHDSGSGSC

Aβ(1-8)-GSGSC = biological target: T2, Aβ(1-8)-GSGSC (human)
T2 construct: amyloid-β peptide (Aβ), cut from the amyloid precursor protein (APP), human, residues 1-8; C-terminal spacer with the cysteine by which the peptide was coupled to the chip; source: synthetic peptide, bought: JPT
T2 chain: DAEFRHDSGSGSC

Aβ(3-8)-GSGSC = biological target: T3, Aβ(3-8)-GSGSC (human)
T3 construct: amyloid-β peptide (Aβ), cut from the amyloid precursor protein (APP), human, residues 3-8; C-terminal spacer with the cysteine by which the peptide was coupled to the chip; source: synthetic peptide, bought: JPT
T3 chain: EFRHDSGSGSC

Kd (Aβ(2-8)-GSGSC): 32 nM
koff (Aβ(2-8)-GSGSC): 0.00154 s⁻¹
kon (Aβ(2-8)-GSGSC): 48500 M⁻¹ s⁻¹
Kd (Aβ(1-8)-GSGSC): 51 nM
koff (Aβ(1-8)-GSGSC): 0.0018 s⁻¹
kon (Aβ(1-8)-GSGSC): 35000 M⁻¹ s⁻¹
Kd (Aβ(3-8)-GSGSC): 82 nM
koff (Aβ(3-8)-GSGSC): 0.00343 s⁻¹
kon (Aβ(3-8)-GSGSC): 41700 M⁻¹ s⁻¹
B1: monoclonal IgG2a antibody IC16 (antibody, V domains shown)
VH: QVTLKESGPGILQPSQTLSLTCSFSGFSLSTSGMGVSWIRQPSGKGLEWLAHIFWDDDKNYNPSLKSRLTVSKDTSRNQVFLKITSVDTSDTATYYCARSPHLRGYDVDFDYWGQGTTLTVSS
VL: DVLMTQTPLSLPVSLGDQASISCRSSQSLVHSNGNTYLHWYLQKPGQSPKVLIYKVSNRFSGVPDRFSGSGSGTDFTLKISRVEAEDLGVYFCSQSTHVPLTFGAGTKLELK
notes: IgG2a; raised in a PrP knockout mouse against KLH Aβ(1-16); also called monoclonal parent antibody IC16; source: IC16 hybridoma (mouse); copies: 2 + 2
